Laboratory results as given in patent US20150110777A1 (PROTHENA BIOSCIENCES, published 2015).
Residue numbers refer to the chain shown, from its start. One block for each binder: values may come before it.

Columns and labels:
[1] = molecular target: T1, human islet-amyloid polypeptide (IAPP) (human); assay: Biacore SPR; affinity compared with murine 6B8 as reference
T1 construct: also called hIAPP; human IAPP
T1 peptide: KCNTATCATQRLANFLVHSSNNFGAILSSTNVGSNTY
Experimental: (§1) The affinity of various combinations of 6B8 humanized heavy chains and humanized light chain proteins for hIAPP was analyzed on a Biacore instrument. Biacore analysis was performed by preparing an anti-human CM5 chip following the protocol provided in the kit. The 6B8 antibody was captured such that the maximum binding of rat IAPP would not exceed 20-30 RU. […] Data was blank subtracted to both an irrelevant sensor not containing 6B8 and 0 IAPP concentration to account for the dissociation of 6B8 from the anti-human capture. Data was then analyzed using a global 1:1 fit.

rat IAPP [2] = molecular target: T2, rat IAPP (rat, UniProt P12969 38-74); assay: not stated for the murine antibody; sentence follows the Biacore results
T2 peptide (looked up): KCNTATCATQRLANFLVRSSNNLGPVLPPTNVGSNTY

rat IAPP [3] = molecular target: T2, rat IAPP; assay: Biacore SPR; antibody captured on anti-human CM5 chip, rat IAPP flowed over; global 1:1 fit
Experimental: as §1

[4] = molecular target: T3, peptide NTATCATQRL, amino acids 3-12 of hIAPP (human); assay: epitope mapping against shorter peptides from hIAPP
T3 peptide: NTATCATQRL

rat IAPP [5] = molecular target: T2, rat IAPP; assay: Biacore SPR (result of Example 7 told in the description)
Experimental: as §1

fold of the affinity of the murine 6B8 antibody [1]: ≤ 3 fold
fold difference in affinity against the murine 6B8 antibody (rat IAPP [2]): ≤ 3 fold
Kd (rat IAPP [3]): 23.4 nM
koff (rat IAPP [3]): 0.00513 s⁻¹
kon (rat IAPP [3]): 220000 M⁻¹ s⁻¹
B1: chimeric mouse-human 6B8 antibody (antibody, V domains shown)
VH: QVQLQQPGAELVKPGASVRLSCKASGYTFTSYWMHWVKQRPGQGLEWLGEINPRNGHSNYNEKIRNKATLTADTSSSTVSMQLSSLTSEDSAVYYCTVNRGFYYFFDVWGTGTTVTVSS
VL: DVLMTQSPLSLPVSLGDQASISCRSSQSIAHSNGNTYLEWYLQKPGQSPKLLIYKVSNRFSGVPDRFSGSGSGTDFTLKISRVEAEDLGVYYCFQGSHIPRTFGGGTKLEIKR
notes: Mouse 6B8 variable regions with human constant regions; captured on an anti-human chip; also called ch6B8; chimeric 6B8 antibody

binding result [4]: binds
B2: murine 6B8 antibody (LA21-6B8) (antibody, V domains shown)
VH: B1 VH
VL: B1 VL
notes: also called m6B8; mouse 6B8

factor of affinity against the mouse-human chimeric 6B8 antibody (rat IAPP [5]): ≤ 1.5 fold
fold of the affinity of the murine 6B8 antibody [1]: ≤ 3 fold
fold difference in affinity against the murine 6B8 antibody (rat IAPP [2]): ≤ 3 fold
Kd (rat IAPP [3]): 31.2 nM
koff (rat IAPP [3]): 0.00832 s⁻¹
kon (rat IAPP [3]): 266000 M⁻¹ s⁻¹
B3: humanized 6B8 H2L1 antibody (antibody, V domains shown)
VH: QVQLQQSGAEVKKPGASVKVSCKASGYTFTSYWMHWVRQRPGQGLEWMGEINPRNGHSNYNEKIRNRVTMTADTSTSTVYMELSSLRSEDTAVYYCTVNRGFYYFFDVWGQGTTVTVSS
VL: B1 VL with S14T, L15P, D17E, Q18P, K50Q, L88V
notes: Only variable regions are tied to the tested antibody; also called h6B8-H2L1; h6B8 H2L1
